A word on the Kd: it is the concentration at which binding is half-saturated. Low values mean a tighter complex, high ones a looser complex. For orientation: stoichiometry N means a count of units in the complex or per binding partner.

What all share (assay): ITC
Test [1] has as its target T1, monomeric actin (LatB-actin) (UniProt P68135 1-377).
In test [2] the target is T1, monomeric actin (LatB-actin). This is another data set of the same source.
Test [3] concerns the target T2, Sca2 C-terminal fragment, construct Sca_(868-1515) (Rickettsia conorii, UniProt Q92JF7 868-1515).
T2 sequence: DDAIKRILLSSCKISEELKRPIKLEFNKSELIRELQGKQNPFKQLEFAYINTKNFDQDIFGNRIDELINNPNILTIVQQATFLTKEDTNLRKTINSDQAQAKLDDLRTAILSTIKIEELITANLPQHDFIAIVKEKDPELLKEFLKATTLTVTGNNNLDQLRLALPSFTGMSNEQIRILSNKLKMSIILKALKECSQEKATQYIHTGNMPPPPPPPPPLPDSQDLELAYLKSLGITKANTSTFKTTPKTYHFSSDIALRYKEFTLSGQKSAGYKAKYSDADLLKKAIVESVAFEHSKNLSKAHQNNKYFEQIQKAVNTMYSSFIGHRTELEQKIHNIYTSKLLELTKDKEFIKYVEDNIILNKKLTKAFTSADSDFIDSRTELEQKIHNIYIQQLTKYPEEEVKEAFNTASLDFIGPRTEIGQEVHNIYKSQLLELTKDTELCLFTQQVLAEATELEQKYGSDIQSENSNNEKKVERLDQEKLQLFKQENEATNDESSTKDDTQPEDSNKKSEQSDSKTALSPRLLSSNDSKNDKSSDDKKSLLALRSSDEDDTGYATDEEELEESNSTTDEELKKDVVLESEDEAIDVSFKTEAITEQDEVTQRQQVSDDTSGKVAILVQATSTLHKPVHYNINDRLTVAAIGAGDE

Read-outs that look alike come from different tables or passages of the source.

B1: Sca2 construct Sca_(869-1060) (domain or fragment)
chain: DAIKRILLSSCKISEELKRPIKLEFNKSELIRELQGKQNPFKQLEFAYINTKNFDQDIFGNRIDELINNPNILTIVQQATFLTKEDTNLRKTINSDQAQAKLDDLRTAILSTIKIEELITANLPQHDFIAIVKEKDPELLKEFLKATTLTVTGNNNLDQLRLALPSFTGMSNEQIRILSNKLKMSIILKALK
On to B1, for which, in test [1], the Kd came to 10.8 µM and the “stoichiometry N” value is 1 LatB-actin monomer per Sca_(869-1060).

B2: MBP fusion of the WH2 domain of WAVE1 (WAVE1 WH2a) (domain or fragment)
chain: AAANNNNNNNNNNLGARSVLLEAIRKGIQLRKV
As to B2, in test [2], binding was characterised by a dissociation constant (Kd) of 0.38 µM and the “stoichiometry N” value amounted to 1.07.

B3: Sca2 N-terminal fragment, construct Sca_(34-670) (domain or fragment)
chain: ASFKDLVSKTPAWEKHNSTQQQNIWKDLTPNEKIKKWQEAALVPSFTQAQNDLGIKYKETDLSSFLDNTRHKARQARAEILLYIERVKQQDFDTKKQAYINQGVVPTDIEAATNLGISYDPSKIDNNVEHDQKVRRAEKDKKAVIELYVSSINRGIKYKHYVDNDIIPEIQEVRTALNMNKDDAQSFVASIRTEIMENAKGQYIADSHIPTEKELKKKFGISRDDNRDGYIKSIRLKVMDKEKPQYIADSHIPTEKELEQKFGADKGEATNYIASIATQMMLDKKSYYIDNNIIPNADELMNEFKIGPVKATSYINQIRAGIEANQFLNNNDTTKPSTGRSQKKSGSKNDHWYMSNQSINNTGTSARIVTGREKKQRYFFDPISTFKTYFNTKASKGNLTQSQHNINRIIQQEENIEEFKNLIKTDPIAALTLQVDSSYKQEAVTTILSDFNDDTIQRVLFSNDKGKLDFNTNIDVKNRPILQELLENSSSEEKTKFAERIQDYATRNISNSQFEEKARLDLIKLAASKDKSSVENFLTLQLELKNRMQPYVVNSVYILTPEIVKEINIELKNKGLIRDSLTKDYMIKLAKEVNNHTLNSVIKVILSDSKILSNETNKILGLAVSNNANNLEQTQSG
For the molecule B3, the Kd in test [3] is 7 µM. Further, in test [2], the “stoichiometry N” value was 2 actin subunits per Sca_(34-670).

Values taken from paper doi:10.1101/467431 (bioRxiv, 2018).
